# Assay results reported in patent US5824869.
# Legend:
# [1] = molecular target: Rs-AFP1 (Raphanus sativus antifungal protein 1) (Raphanus sativus)
# [2] = molecular target: Rs-AFP2 (Raphanus sativus antifungal protein 2) (Raphanus sativus)
Substance,antifungal activity on Fusarium culmorum after digestion with the protease [1] [fold],antifungal activity on Fusarium culmorum after digestion with the protease [2] [fold]
chymotrypsin (enzyme),10,10
pronase E (enzyme),10,10
proteinase K (from UniProt P06873) (enzyme),10,10
trypsin (enzyme),10,10
